# Entries after “also recorded” stand apart in the source; their conditions may differ. Primed or numbered codes have the meaning given here. *: point of attachment. Alexa‑350 = fluorescent label on the Cys side chain (double-labeled qf-Aβ(1-7)C); Dabcyl′ = CN(C)c1ccc(/N=N/c2ccc(C(=O)*)cc2)cc1
# What was measured:
# NEP = experiment: Screening of compounds for NEP activity of SH-SY5Y cells with qf-Aβ(1-7)C substrate; format: cell-based, human; conditions: 5 μM compound, 24 hr; 2 μM qf-Aβ(1-7)C, 1 h
# Protocol: The compound number is indicated on the left of each bar. […] (**, p value<0.001; *, p value<0.01).
# Analogs comprising at least three hydroxyl groups attached to the two aromatic rings of the curcumin structure scaffold (Compound 1) were particularly active in enhancing NEP activity.
# Human SH-SY5Y cells were cultured in the Dulbecco's modified Eagle's medium (DMEM, Gibco, USA) supplemented with 10% fetal bovine serum (FBS; Biological industries, USA) in 5% CO2 at 37° C. The cells were harvested and re-suspended in the phenol red-free DMEM medium supplemented with 10% FBS at a density of 1×10^6 cells/mL. 100 μL of cell culture was added in each well of a 96-well plate. The compounds (no. 1 to no. 24) were dissolved in DMSO, and the others (no. 25 and no. 26) were dissolved in sterilized water to make the stock solution (1 mM). Each compound was mixed with phenol red-free DMEM supplemented with 10% FBS to a final concentration of 10 μM. 100 μL of the medium containing 10 μM indicated compound was added into the wells to make the final compound concentration 5 μM. After incubation for 24 hr, the medium of the culture was replaced with the phenol red-free DMEM medium (not FBS) containing 2 μM qf-Aβ(1-7)C and incubation continued for additional 1 h. To measure the proteolytic activity, 100 μL of the medium was taken out for fluorescence measurement on SpectraMax Gemini EM (Molecular Devices, USA) with excitation at 346 nm and emission at 442 nm. The average of three replicate wells was used for each sample and control.
# recombinant human NEP = molecular target: T1, recombinant human NEP (Homo sapiens, UniProt P08473); experiment: Fluorogenic enzyme assay, peptide substrate digested by NEP; format: biochemical
# T1 construct: purchased R&D Systems (USA)
# T1 sequence (P08473 whole entry): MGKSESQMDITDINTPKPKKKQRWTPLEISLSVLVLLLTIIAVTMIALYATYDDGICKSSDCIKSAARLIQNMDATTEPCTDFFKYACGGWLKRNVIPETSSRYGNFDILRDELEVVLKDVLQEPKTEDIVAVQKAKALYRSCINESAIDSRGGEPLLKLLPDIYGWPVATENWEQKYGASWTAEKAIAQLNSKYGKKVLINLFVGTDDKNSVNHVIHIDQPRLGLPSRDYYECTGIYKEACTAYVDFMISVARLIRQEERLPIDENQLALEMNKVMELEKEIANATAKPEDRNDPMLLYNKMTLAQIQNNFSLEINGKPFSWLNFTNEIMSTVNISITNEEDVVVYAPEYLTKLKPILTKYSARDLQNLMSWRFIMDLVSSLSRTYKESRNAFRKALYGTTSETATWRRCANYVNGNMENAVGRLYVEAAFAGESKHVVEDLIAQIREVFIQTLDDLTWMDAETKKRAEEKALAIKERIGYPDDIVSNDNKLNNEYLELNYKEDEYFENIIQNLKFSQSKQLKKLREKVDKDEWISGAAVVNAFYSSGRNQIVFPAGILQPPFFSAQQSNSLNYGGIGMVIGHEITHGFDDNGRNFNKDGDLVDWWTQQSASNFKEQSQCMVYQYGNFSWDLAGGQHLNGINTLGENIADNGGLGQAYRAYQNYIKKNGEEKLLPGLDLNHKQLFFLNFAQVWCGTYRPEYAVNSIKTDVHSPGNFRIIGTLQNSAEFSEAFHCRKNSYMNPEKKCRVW
# Protocol: To determine the optimal reaction conditions, 0.92 nM NEP was mixed with different concentrations of qf-Aβ(1-7)C, then, after incubation for 1, 2, 3, or 4 h at 37° C., the peptide-degrading activity of NEP was measured by recording fluorescence emission at 465 nm. The fluorescence intensity increased at least 40-fold with the degradation of the quenched fluorogenic peptide. […] Incubation for 1 h was sufficient for detection. At higher substrate concentrations, the fluorescence intensity was much larger, but the error increased. To test whether the sensitivity of NEP detection was increased when a higher substrate concentration was used, 1.84 μM qf-Aβ(1-7)C was mixed with different concentrations of NEP and reacted at 37° C. for 1, 2, 3, or 4 h and the fluorescence emission at 465 nm measured (FIG. 4). […] The substrate concentration of 1.84 μM or more was therefore used in the following studies.
# To determine the optimal substrate concentration in the fluorogenic enzyme assay, NEP (0.5 mg/mL) and substrate peptide qf-Aβ(1-7)C (1 mM) were mixed in 50 mM Tris-HCl (pH 7.5), 25 mM NaCl, 5 μM ZnCl2 to a final NEP concentration of 0.92 nM and peptide concentrations of 0.46, 0.92, 1.84, 3.68, or 7.36 μM and placed on a 96-well plate (Corning, USA). The final volume of the reaction solution was kept as 200 μL. The enzyme reaction was performed in the dark at 37° C. and the fluorescence was measured at 1, 2, 3, and 4 h with excitation at 360 nm and emission at 465 nm on a Paradigm™ Detection Platform (Beckman Coulter, USA) (FIG. 3). […] The enzyme reaction was performed in the dark at 37° C. and the fluorescence was measured at 1, 2, 3, and 4 h. […]
# (§1) One commercially available quenched fluorogenic peptide substrate, Dansyl-^DAGF(pNO2)G, was tested for comparison. The fluorescence of dansyl is quenched by the presence of nitrophenyl group. Digestion was monitored by the fluorescence increase of dansyl at 562 nm when excited at 342 nm. […]
# Human plasmin = molecular target: T2, Human plasmin (Homo sapiens, UniProt P00747); experiment: Fluorogenic enzyme assay, peptide substrate digested by plasmin; format: biochemical; conditions: 2 μM substrate
# T2 construct: Human plasmin (1 mM) was purchased from Sigma (USA); purchased Sigma (USA)
# T2 sequence (P00747 581-810 limits assumed): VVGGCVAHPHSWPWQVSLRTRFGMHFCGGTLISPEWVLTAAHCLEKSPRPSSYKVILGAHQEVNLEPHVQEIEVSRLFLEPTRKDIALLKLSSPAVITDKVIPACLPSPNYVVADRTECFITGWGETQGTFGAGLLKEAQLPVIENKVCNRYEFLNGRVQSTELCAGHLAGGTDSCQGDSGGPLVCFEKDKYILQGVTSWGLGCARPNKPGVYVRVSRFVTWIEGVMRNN
# T2 sequence (P00747 97-580 partner limits assumed): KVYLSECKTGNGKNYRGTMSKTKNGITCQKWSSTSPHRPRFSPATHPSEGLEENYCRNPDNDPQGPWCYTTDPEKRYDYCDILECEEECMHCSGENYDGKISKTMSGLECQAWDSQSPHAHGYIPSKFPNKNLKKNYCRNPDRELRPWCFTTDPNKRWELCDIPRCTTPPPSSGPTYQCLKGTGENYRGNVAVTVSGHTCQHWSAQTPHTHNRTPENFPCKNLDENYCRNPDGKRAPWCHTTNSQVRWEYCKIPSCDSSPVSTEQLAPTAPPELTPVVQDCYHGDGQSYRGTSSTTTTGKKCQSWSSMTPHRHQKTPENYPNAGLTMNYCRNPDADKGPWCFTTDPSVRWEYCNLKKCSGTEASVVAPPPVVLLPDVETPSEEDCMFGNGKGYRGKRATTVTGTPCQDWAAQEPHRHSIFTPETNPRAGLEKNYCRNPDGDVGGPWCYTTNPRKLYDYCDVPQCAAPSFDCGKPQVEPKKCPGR
# Protocol: (§2) Recombinant human NEP (0.5 mg/mL), insulin-degrading enzyme (IDE) (0.386 mg/mL), endothelin-converting enzyme 1 (ECE-1) (0.298 mg/mL), matrix metalloproteinases (MMP)-3 (0.124 mg/mL) and MMP-9 (0.5 mg/mL), and angiotensin-converting enzyme (ACE) (0.434 mg/mL) were purchased from R&D Systems (USA). Human plasmin (1 mM) was purchased from Sigma (USA). […] MMP-3 and MMP-9 were pre-activated by incubation at 37° C. for 24 h with 1 mM p-aminophenylmercuric acetate. The quenched fluorogenic peptide substrate qf-Aβ(1-7)C (0.4 μL of the 1 mM stock in DMSO) was mixed with different concentrations of enzyme solution (final peptide concentration 2 μM) on a 96-well plate. The final volume of the reaction solution was kept as 200 μL. The mixture was incubated in the dark for 1, 2, 3, or 4 h at 37° C., and then the fluorescence was measured with excitation at 360 nm and emission at 465 nm on a Paradigm™ Detection Platform (Beckman Coulter, USA) (FIG. 5).
# [1] = molecular target: T3, angiotensin-converting enzyme (ACE) (Homo sapiens, UniProt P12821); experiment: Fluorogenic enzyme assay, peptide substrate digested by ACE; format: biochemical; conditions: 2 μM substrate
# T3 construct: purchased R&D Systems (USA)
# T3 sequence (P12821 30-1306): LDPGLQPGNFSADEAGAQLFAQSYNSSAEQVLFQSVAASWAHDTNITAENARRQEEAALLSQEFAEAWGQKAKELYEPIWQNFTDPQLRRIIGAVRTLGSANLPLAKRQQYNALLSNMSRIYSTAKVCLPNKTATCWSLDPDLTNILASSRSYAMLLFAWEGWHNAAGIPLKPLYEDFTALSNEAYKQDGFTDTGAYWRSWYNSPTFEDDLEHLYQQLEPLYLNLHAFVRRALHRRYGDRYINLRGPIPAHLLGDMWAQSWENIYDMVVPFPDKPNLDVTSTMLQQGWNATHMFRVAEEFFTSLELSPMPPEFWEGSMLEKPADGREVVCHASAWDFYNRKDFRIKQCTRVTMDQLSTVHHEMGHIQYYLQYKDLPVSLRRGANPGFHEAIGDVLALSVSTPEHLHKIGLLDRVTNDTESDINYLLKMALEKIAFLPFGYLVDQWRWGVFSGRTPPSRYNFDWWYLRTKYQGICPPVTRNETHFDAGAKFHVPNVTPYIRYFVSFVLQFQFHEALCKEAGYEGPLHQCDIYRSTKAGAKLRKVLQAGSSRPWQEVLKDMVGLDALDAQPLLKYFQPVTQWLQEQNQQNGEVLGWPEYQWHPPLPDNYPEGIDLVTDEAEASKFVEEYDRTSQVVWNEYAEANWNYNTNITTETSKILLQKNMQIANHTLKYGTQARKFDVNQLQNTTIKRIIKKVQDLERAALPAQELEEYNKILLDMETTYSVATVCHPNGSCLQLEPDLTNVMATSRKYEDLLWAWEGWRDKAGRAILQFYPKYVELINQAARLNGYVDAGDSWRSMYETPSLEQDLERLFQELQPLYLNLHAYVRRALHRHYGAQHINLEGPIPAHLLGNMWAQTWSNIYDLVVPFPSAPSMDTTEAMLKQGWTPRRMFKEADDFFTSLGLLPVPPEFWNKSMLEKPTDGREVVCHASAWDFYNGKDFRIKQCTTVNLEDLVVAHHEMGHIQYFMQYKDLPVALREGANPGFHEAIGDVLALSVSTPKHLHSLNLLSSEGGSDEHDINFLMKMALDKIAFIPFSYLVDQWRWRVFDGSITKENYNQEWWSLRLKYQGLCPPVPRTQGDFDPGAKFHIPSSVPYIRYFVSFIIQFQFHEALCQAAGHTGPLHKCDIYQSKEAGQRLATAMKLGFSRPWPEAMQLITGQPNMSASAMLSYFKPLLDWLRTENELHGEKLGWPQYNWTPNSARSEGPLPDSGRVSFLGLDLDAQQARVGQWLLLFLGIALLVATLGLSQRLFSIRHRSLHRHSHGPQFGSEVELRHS
# Protocol: as §2
# One commercially available quenched fluorogenic peptide substrate, Dansyl-^DAGF(pNO2)G, was tested for comparison. The fluorescence of dansyl is quenched by the presence of nitrophenyl group. Digestion was monitored by the fluorescence increase of dansyl at 562 nm when excited at 342 nm. […] This substrate also has enzyme specificity. It is sensitive to NEP and ACE (FIG. 8B). […]
# MMP-9 = molecular target: T4, MMP-9 (Homo sapiens, UniProt P14780); experiment: Fluorogenic enzyme assay, peptide substrate digested by MMP-9; format: biochemical; conditions: 2 μM substrate, pH 7.5, 37° C.
# T4 construct: purchased R&D Systems (USA)
# T4 sequence (P14780 107-707 limits assumed): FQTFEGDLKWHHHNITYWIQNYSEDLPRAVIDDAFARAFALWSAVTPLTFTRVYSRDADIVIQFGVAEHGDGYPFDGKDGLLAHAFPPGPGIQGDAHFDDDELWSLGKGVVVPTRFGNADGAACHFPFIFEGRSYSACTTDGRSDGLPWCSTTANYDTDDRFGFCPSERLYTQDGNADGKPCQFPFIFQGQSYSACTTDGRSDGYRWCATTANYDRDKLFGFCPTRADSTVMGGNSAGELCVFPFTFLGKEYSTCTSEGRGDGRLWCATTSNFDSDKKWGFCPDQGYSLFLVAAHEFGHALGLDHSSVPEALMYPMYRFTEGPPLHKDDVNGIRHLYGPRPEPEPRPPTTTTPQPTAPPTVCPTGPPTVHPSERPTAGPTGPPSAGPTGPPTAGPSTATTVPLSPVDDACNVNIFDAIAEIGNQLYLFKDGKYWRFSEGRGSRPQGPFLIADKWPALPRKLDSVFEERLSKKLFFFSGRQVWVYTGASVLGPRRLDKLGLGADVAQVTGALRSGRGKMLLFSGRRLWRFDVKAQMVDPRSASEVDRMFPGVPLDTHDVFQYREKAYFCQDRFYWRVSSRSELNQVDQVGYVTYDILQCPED
# Protocol: as §2
# [2] = molecular target: T5, endothelin-converting enzyme 1 (ECE-1) (Homo sapiens, UniProt P42892); experiment: Fluorogenic enzyme assay, peptide substrate digested by ECE-1; format: biochemical; conditions: 2 μM substrate, pH 7.5, 37° C.
# T5 construct: purchased R&D Systems (USA)
# T5 sequence (P42892 1-770): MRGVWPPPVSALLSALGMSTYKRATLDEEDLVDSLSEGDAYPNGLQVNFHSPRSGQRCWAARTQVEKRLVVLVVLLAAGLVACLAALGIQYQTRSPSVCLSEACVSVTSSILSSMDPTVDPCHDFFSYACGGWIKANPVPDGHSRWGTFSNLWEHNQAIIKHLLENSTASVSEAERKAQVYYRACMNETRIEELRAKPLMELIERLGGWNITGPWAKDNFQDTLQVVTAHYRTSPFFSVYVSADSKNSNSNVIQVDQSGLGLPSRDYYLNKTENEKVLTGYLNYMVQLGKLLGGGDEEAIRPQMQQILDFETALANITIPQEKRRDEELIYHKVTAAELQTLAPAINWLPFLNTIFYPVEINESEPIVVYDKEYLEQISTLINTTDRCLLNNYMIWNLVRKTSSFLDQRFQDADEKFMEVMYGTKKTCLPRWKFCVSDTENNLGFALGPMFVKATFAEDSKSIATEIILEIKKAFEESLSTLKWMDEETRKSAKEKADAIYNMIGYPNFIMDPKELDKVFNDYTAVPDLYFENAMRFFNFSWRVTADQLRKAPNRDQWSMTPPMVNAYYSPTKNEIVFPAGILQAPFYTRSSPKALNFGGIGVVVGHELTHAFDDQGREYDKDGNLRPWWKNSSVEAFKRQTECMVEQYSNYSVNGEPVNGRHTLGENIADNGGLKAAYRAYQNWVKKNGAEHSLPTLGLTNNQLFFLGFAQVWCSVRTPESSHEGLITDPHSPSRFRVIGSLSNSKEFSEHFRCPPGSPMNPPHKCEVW
# Protocol: as §2
# [3] = molecular target: T6, insulin-degrading enzyme (IDE) (Homo sapiens, UniProt P14735); experiment: Fluorogenic enzyme assay, peptide substrate digested by IDE; format: biochemical
# T6 construct: purchased R&D Systems (USA)
# Protocol: as §2
# The assay system was sensitive enough to detect as low as 0.10 nM NEP. […]
# as §1
# MMP-3 = molecular target: T7, MMP-3 (Homo sapiens, UniProt P08254); experiment: Fluorogenic enzyme assay, peptide substrate digested by MMP-3; format: biochemical; conditions: 2 μM substrate
# T7 construct: purchased R&D Systems (USA)
# T7 sequence (P08254 100-477): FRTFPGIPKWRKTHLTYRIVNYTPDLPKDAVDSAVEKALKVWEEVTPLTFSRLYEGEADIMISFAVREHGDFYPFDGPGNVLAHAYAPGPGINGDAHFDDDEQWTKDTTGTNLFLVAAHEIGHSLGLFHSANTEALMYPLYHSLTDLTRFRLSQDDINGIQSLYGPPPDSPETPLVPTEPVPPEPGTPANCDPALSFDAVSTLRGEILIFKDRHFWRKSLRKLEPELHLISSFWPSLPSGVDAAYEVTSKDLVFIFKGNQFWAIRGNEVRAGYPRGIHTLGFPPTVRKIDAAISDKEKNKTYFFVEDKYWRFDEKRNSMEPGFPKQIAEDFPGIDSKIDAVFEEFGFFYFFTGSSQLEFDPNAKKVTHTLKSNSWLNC
# Protocol: as §2
compound,measurement,setting,value
"COc1cc(C=CC(=O)CC(=O)C=Cc2ccc(O)c(O)c2)ccc1O [Compound 7, 1-(3,4-Dihydroxyphenyl)-7-(3-methoxy-4-hydroxyphenyl)-1,6-heptadiene-3,5-dione]",NEP activity of human SHSY5Y cells treated with compound (effect in words),NEP,largely enhanced NEP activity; also recorded: large enhancements of NEP activity
"O=C(C=Cc1ccc(O)c(O)c1)CC(=O)C=Cc1ccc(O)c(O)c1 [Compound 8, 1,7-Bis(3,4-dihydroxyphenyl)-1,6-heptadiene-3,5-dione]",NEP activity of human SHSY5Y cells treated with compound (effect in words),NEP,largely enhanced NEP activity; also recorded: large enhancements of NEP activity
"COc1cc(C=CC(=O)CC(=O)C=Cc2cc(O)c(O)c(OC)c2)cc(O)c1O [Compound 10, 1,7-Bis(3,4-dihydroxy-5-methoxyphenyl)-1,6-heptadiene-3,5-dione]",NEP activity of human SHSY5Y cells treated with compound (effect in words),NEP,largely enhanced NEP activity; also recorded: large enhancements of NEP activity
"COc1ccc2ccccc2c1C=CC(=O)CC(=O)C=Cc1c(OC)ccc2ccccc12 [Compound 14, 1,7-Bis(2-methoxy-1-naphthyl)-1,6-heptadiene-3,5-dione]",NEP activity of human SHSY5Y cells treated with compound (effect in words),NEP,decreased NEP activity
same,decrease of NEP activity,NEP,~20%
"O=C(C=Cc1ccc(O)cc1)CC(=O)C=Cc1ccc(O)c(O)c1 [Compound 20, 1-(3,4-dihydroxyphenyl)-7-(4-hydroxyphenyl)-1,6-heptadiene-3,5-dione]",NEP activity of human SHSY5Y cells treated with compound (effect in words),NEP,largely enhanced NEP activity; also recorded: large enhancements of NEP activity
"qf-Aβ(1-7)C: Peptide DAEFRHDC, Aβ residues 1-7 plus C-terminal Cys, with Alexa-350 on the Cys side-chain and Dabcyl quencher at the N-terminus ({Dabcyl′}-DAEFRHDC(Alexa‑350)-OH)",lowest substrate concentration at which 0.92 nM NEP could be detected,"recombinant human NEP; 0.92 nM NEP, 37° C.",0.46 µM
same,fluorescence intensity increase with degradation of the quenched fluorogenic peptide,"recombinant human NEP; 0.92 nM NEP, 37° C., emission at 465 nm",at least 40 fold
same,cleavage of the quenched fluorogenic peptide by NEP,"recombinant human NEP; 2 μM substrate, pH 7.5, 37° C.",effective
same,fluorescence increase after digestion with plasmin,Human plasmin; 1-h digestion,no significant fluorescence increase
same,sensitivity of the system to plasmin,"Human plasmin; pH 7.5, 37° C.",much less sensitive
same,fluorescence increase after digestion with ACE,[1]; 1-h digestion,no significant fluorescence increase
same,fluorescence increase after incubation with ACE,[1]; 3 h,very weak fluorescence increase
same,sensitivity of the system to MMP-9,MMP-9,insensitive; also recorded: much less sensitive
same,sensitivity of the system to ECE-1,[2],insensitive; also recorded: much less sensitive
same,cleavage of the quenched fluorogenic peptide by IDE,"[3]; 2 μM substrate, pH 7.5, 37° C.",effective
same,lowest IDE concentration detected,"[3]; 37° C., 1 h",0.2 nM
same,fluorescence increase after digestion with MMP-3,MMP-3; 1-h digestion,no significant fluorescence increase
same,fluorescence increase after incubation with MMP-3,MMP-3; 3 h,very weak fluorescence increase

# From US9074238B2, “Methods for enhancing neprilysin activity and degrading amyloid-beta peptides and oligomers in a subject with Alzheimer's disease” (ACADEMIA SINICA, priority 2011, dated 2015)
